Experimental data from paper PMC11033526 (2023).
No end group written: not given here. *: point of attachment. Biotin = O=C1N[C@H]2[C@H](CS[C@H]2CCCCC(=O)*)N1

Assays:
mouse calmodulin [1] = target: T1, mouse calmodulin (mouse, UniProt P0DP26 1-149); test: SPR; 1 mM EGTA (no Ca2+)
mouse calmodulin [2] = target: T1, mouse calmodulin; test: SPR; 1 mM EGTA (no Ca2+); remark: listed apart in the source

B1: biotin-mT1r2 CT peptide (cytosolic C-terminal region of mouse taste receptor type 1 subunit 2) (peptide)
peptide: Biotin-GGSGGSPKCYMILFYPERNTSAYFNSMIQGYTMRKS
- Kd (mouse calmodulin [1]): 9.7 µM
- koff (mouse calmodulin [2]): 0.00207 s⁻¹
